Measurements from publication PMC5262380, “Structural insights into the mechanism of the DEAH-box RNA helicase Prp43” (eLife, 2017).

Key:
[1] = biological target: ctPrp43 (DEAH-box RNA helicase Prp43 from Chaetomium thermophilum), wild type (C. thermophilum) (UniProt G0RY84)
[2] = biological target: ctPrp43(Y348G, T350G) (C. thermophilum)
[3] = biological target: ctPrp43(R180G, F181G, Y348G, T350G) (C. thermophilum)
[4] = biological target: ctPrp43(R180G, F181G) (C. thermophilum)
[5] = biological target: ctPrp43 (DEAH-box RNA helicase Prp43 from Chaetomium thermophilum), wild type (C. thermophilum) (UniProt G0RY84); remark: listed apart in the source
[6] = biological target: ctPrp43(F181C, N623C) (C. thermophilum)

helicase activity (maximal unwinding velocity of a dsRNA with 3' overhang; 250 nM ctPrp43, 1.25 uM G-patch; ctPrp43 alone 0.54 nM/min) [1]	ATPase activity kcat with five-fold excess of G-patch, no RNA (ctPrp43-HL alone 6.19 min^-1) [2]	ATPase activity kcat with five-fold excess of G-patch, no RNA (ctPrp43-HT&HL alone 7.61 min^-1) [3]	ATPase activity kcat with five-fold excess of G-patch, no RNA (ctPrp43-HT alone 13.21 min^-1) [4]	ATPase activity kcat with five-fold excess of G-patch, no RNA (ctPrp43 alone 1.81 min^-1) [5]	ATPase activity kcat with five-fold excess of G-patch, no RNA (ctPrp43-IDSB alone 5.04 min^-1) [6]	Substance
60 nM/min	1.44 s⁻¹	1.89 s⁻¹	1.02 s⁻¹	0.605 s⁻¹	3.32 s⁻¹	ctPfa1(662-742), truncated G-patch construct of the C. thermophilum Pfa1 homolog (domain or fragment)
1.98 nM/min	–	–	–	0.0693 s⁻¹	–	ctNtr1(242-305), truncated G-patch construct of the C. thermophilum Ntr1 homolog (domain or fragment)
